Consider 3 molecules from US20230398184A1, “METHODS OF INDUCING STEM CELL MOBILIZATION” (NeoImmuneTech, Inc., priority 2020, published 2023).

Common to all, as to assay type: in vivo, C57BL/6 mice
Test [1] deals with LSK cells and HSCs. Description: IL-7 and AMD3100 combination, HSC mobilization into peripheral blood. As to conditions: IL-7 0.5 mg/kg day 0; AMD3100 5 mg/kg 1 hour prior to analysis; day 3. As for the experimental part:
As described herein, AMD3100 (CXCR4 antagonist) is another regimen that is commonly used to promote the migration of HSCs from the bone marrow into the peripheral blood. Cashen et al., Future Oncol 3(1): 19-27 (February 2007). To determine whether IL-7 can also enhance the HSC mobilization effects of AMD3100, C57BL/6 animals received a single subcutaneous administration of the following: (i) buffer alone, (ii) IL-7 alone (0.5 mg/kg), (iii) AMD3100 (5 mg/kg), and (iv) IL-7 (0.5 mg/kg) in combination with AMD3100 (5 mg/kg). […] At day 3 post initial administration, the number of both LSK cells and HSCs were again assessed in the peripheral blood using flow cytometry.

The test system of test [2] is LSK cells and HSCs. The test is described as follows: IL-7 and G-CSF combination, HSC mobilization into peripheral blood. Particulars: IL-7 0.5 mg/kg or G-CSF 5 μg s.c., day 3. How it is done:
To determine whether the combined treatment of IL-7 and G-CSF can further improve the mobilization of HSCs into the peripheral blood, C57BL/6 animals received a single subcutaneous administration of one of the following: (i) buffer alone, (ii) IL-7 alone (0.5 mg/kg), (iii) pegylated recombinant human G-CSF alone (5 μg), and (iv) IL-7 (0.5 mg/kg) in combination with G-CSF (5 μg). Then, at day 3 post administration, both the number of LSK cells and HSCs in the peripheral blood were assessed using flow cytometry.

Test [3] concerns LSK cells and HSCs. The test is described as follows: Comparison of IL-7 with G-CSF and G-CSF + AMD3100 on mobilization of HSCs to peripheral blood. As to conditions: PEG-rhG-CSF 5 μg s.c. day 3; rhG-CSF 6.25 μg/day days 0-3. How it is done: As described herein, granulocyte colony stimulating factor (G-CSF) is a standard regimen used in the clinic to induce HSC mobilization. Therefore, the potency of IL-7 was compared to that of G-CSF on inducing the mobilization of HSCs to peripheral blood was assessed. Briefly, C57BL/6 mice were treated with one of the following: (i) control buffer (“control”), (ii) IL-7 protein (“IL-7”) (2.5 mg/kg; subcutaneous), (iii) long-acting pegylated recombinant human G-CSF (“PEG-rhG-CSF”) (5 μg; subcutaneous), or (iv) non-pegylated recombinant human G-CSF (“rhG-CSF”) (twice a day (6.25 μg/day) at days 0, 1, 2, and 3 (i.e., total dose of 25 μg/mouse); subcutaneous). In animals treated with the IL-7 protein or PEG-rhG-CSF, the number of LSK cells and HSCs was determined in the peripheral blood at day 3 post administration. In animals treated with rhG-CSF, the number of LSK cells and HSCs in the peripheral blood was assessed within 6-8 hours after last rhG-CSF administration.
In this regard, the potency of IL-7 protein alone to the G-CSF+AMD3100 combinational regimen was next compared. Briefly, normal C57BL/6 mice were administered with one of the following: (i) control buffer, (ii) IL-7 protein alone, (iii) pegylated recombinant human G-CSF (“G-CSF”), or (iv) G-CSF in combination with AMD3100. Then, the number of HSCs in the peripheral blood was assessed at day 3 post administration.

`c1cc(CN2CCCNCCNCCCNCC2)ccc1CN1CCCNCCNCCCNCC1` [AMD3100]: in the test with LSK cells and HSCs [1], the “amount of LSK cells and HSCs in peripheral blood vs control” value was “comparable to that of the control animals”.

B1: PEG-rhG-CSF: long-acting pegylated recombinant human G-CSF (protein, UniProt P09919 31-207, looked up)
Granulocyte …: TPLGPASSLPQSFLLKCLEQVRKIQGDGAALQEKLVSECATYKLCHPEELVLLGHSLGIPWAPLSSCPSQALQLAGCLSQLHSGLFLYQGLLQALEGISPELGPTLDTLQLDVADFATTIWQQMEELGMAPALQPTQGAMPAFASAFQRRAGGVLVASHLQSFLEVSYRVLRHLAQP
modifications: PEG
In the case of B1, in the test with LSK cells and HSCs [2], the “amount of LSK cells in peripheral blood vs buffer alone” value is “increased amount”. In addition, in the test on LSK cells and HSCs [3], the “efficacy of mobilization, the two types of G-CSF compared” value is recorded as “comparable efficacy of mobilization”.

B2: rhG-CSF: non-pegylated recombinant human G-CSF (protein, UniProt P09919 31-207, looked up)
Granulocyte …: TPLGPASSLPQSFLLKCLEQVRKIQGDGAALQEKLVSECATYKLCHPEELVLLGHSLGIPWAPLSSCPSQALQLAGCLSQLHSGLFLYQGLLQALEGISPELGPTLDTLQLDVADFATTIWQQMEELGMAPALQPTQGAMPAFASAFQRRAGGVLVASHLQSFLEVSYRVLRHLAQP
On to B2, for which the “efficacy of mobilization, the two types of G-CSF compared” value with LSK cells and HSCs [3] is reported as “comparable efficacy of mobilization”.
